# Test results: patent US20170173114A1, “METHODS AND COMPOSITIONS FOR INDUCTION OF UCP1 EXPRESSION” (Joslin Diabetes Center, Inc., priority 2014, published 2017)
# Legend:
# Type in all cases: cell-based, murine
# [1] = tested on: WT-1 brown preadipocytes; test: Cell proliferation (MTT assay) in WT-1 brown preadipocytes; conditions: 200 ng/ml; 24 and 72 hours
# Procedure: FIGS. 4A-4C graphically depict FGF6 induction of UCP1 expression in brown preadipocytes in a dose-dependent and time-regulated manner. Specifically, FIG. 4A depicts a dose-response curve of UCP1 expression by FGF6 at day 7. Numbers above curve indicate fold-increase relative to vehicle control. FIG. 4B depicts the fold-induction of UCP1 by vehicle control (“C”), FGF6 (“F6”) or FGF21 (“F21”) within 24 hours of treatment. FIG. 4C depicts a time-course of UCP1 expression induced by 200 ng/ml of FGF6, compared with cells differentiated in regular induction media. Numbers above curves indicate fold-induction relative to day 0. FIG. 4D depicts the effect of FGF6 on cell proliferation (measured by MTT assay) at 24 and 72 hours.
# The effect of FGF6 on cell proliferation was also evaluated.
# [2] = tested on: WT-1 brown preadipocytes; test: Seahorse Bioanalyzer cellular respiration in WT-1 brown preadipocytes
# Text: The Seahorse XF24 (Seahorse Bioscience, http://www.seahorsebio.com/) was utilized for respirometry to measure oxygen consumption rates (OCR; indicating oxidative phosphorylation) and extracellular acidification rates (ECAR; indicating extracellular pH) in mature brown adipocytes. The cell plates and assay cartridges for the Seahorse XF24 have four ports allowing for drug delivery to individual wells during measurement of the metabolic parameters. For a typical bioenergetic profile, cells are first treated with oligomycin to block ATP synthase, FCCP as an uncoupler and Rotenone to block Complex 1 of the ETC (all from Sigma). Example 2 provides additional details regarding the general method. Data provided in the Figures (e.g., FIG. 27) based on the Seahorse Bioanalyzer includes a bottom horizontal line which represents the baseline of the mechanics of the machine and is not related to the experiment.
# A profile of cellular respiration was developed by utilizing well-characterized mitochondrial toxins, as described in FIG. 5B. First, basal respiration was measured, followed by injection of oligomycin (an inhibitor of ATP synthase which allows measurement of ATP turnover). Then, the uncoupler FCCP (carbonilcyanide p-triflouromethoxyphenylhydrazone) was injected to measure respiratory capacity, followed by the complex 1 inhibitor rotenone (which prevents electron transfer activity and leaves only non-mitochondrial activity to be measured).
# Similar results were observed when WT-1 brown preadipocytes were treated with 200 ng/mL of FGF6 for 24 hrs using the Seahorse Bioanalyzer.
# The role of PGs in regulating mitochondrial function and cellular glucose uptake was also assessed. WT-1 brown preadipocytes were treated with PGE2, PGI2 and FGF6 in growth media (DMEM+10% FBS) for two days. Similar to treatment with FGF6, treatment with PGE2 and PGI2 enhanced oxygen consumption and glucose uptake, as described in FIGS. 27A and 27B, respectively.
# [3] = tested on: LDHA, PDK1, PKM2; test: LDHA, PDK1 and PKM2 mRNA expression in WT-1 cells; conditions: WT-1, 24 hours; vs vehicle
# Procedure: To test the role of specific prostaglandins (PGs) in activating UCP1 expression, WT-1 brown adipocytes were pretreated with PGE2, PGI2 and FGF6 for 24 hours. mRNA expression levels of UCP1, PTGS2, LDHA, PDK1 and PKM2 were then measured.
# [4] = tested on: UCP1 and PTGS2; test: UCP1 and PTGS2 mRNA in WT-1 cells undergoing adipocyte differentiation; conditions: after induction media; 200 ng/mL FGF or 3.3 nM BMP7, 2 days
# Procedure: In a separate experiment investigating the ability of FGF proteins to induce UCP1 expression in cells undergoing adipocyte differentiation, WT-1 preadipocyte cells were differentiated by culturing in growth media supplemented with insulin (20 nM) and triiodothyronine (T3, 1 nM) for 3 days, followed by incubation in an induction media (growth medium supplemented 20 nM insulin, 1 nM T3, 0.5 mM isobutyl-methylxanthine, 5 μM dexamethasone) for 2 days. The cell were then exposed to BMP7 (3.3 nM) or 200 ng/mL of FGF2, FGF6 or, FGF9 in growth media supplemented with insulin (20 nM) and triodothyronine (T3, 1 nM) for 2 additional days. Cells were harvested and UCP1 and PTGS2 mRNA expression levels were determined according to the quantitative RT-PCR assay described above. Experiments were performed in triplicate and the data presented as mean+/−SEM.
molecule,measurement,setting,value
"FGF6: fibroblast growth factor 6; recombinant human FGF from R&D Systems, or mouse FGF6 cDNA overexpressed by lentiviral vector (protein) KRQRRLYCNVGIGFHLQVLPDGRISGTHEENPYSLLEISTVERGVVSLFGVRSALFVAMNSKGRLYATPSFQEECKFRETLLPNNYNAYESDLYQGTYIALSKYGRVKRGSKVSPIMTVTHFLPRI",effect on cell proliferation,[1],virtually no effect
same,"cellular respiration (basal respiration, ATP turnover, proton leak, respiratory capacity)",[2]; FGF6 overexpressing WT-1 vs control cells,increase in all tested aspects of cellular respiration
same,uncoupled respiration,[2]; WT-1 treated with 200 ng/mL for 24 hrs,elevation in uncoupled respiration
same,"cellular respiration (basal respiration, ATP turnover, proton leak, respiratory capacity)",[2]; WT-1 treated with 200 ng/mL for 24 hrs vs control cells,coordinated increase in all aspects of cellular respiration
same,LDHA mRNA expression,[3],increase
same,PDK1 mRNA expression,[3],increase
same,PKM2 mRNA expression,[3],increase
same,PTGS2 mRNA expression in cells undergoing adipocyte differentiation,[4],able to induce
same,UCP1 mRNA expression in cells undergoing adipocyte differentiation,[4],able to induce
